According to publication doi:10.1101/2025.08.30.673243:
One block for each molecule: values may come before it.

Experiments:
[1] = target: HeLa cohesin (unlabelled cohesin-STAG1) (human (endogenous in HeLa)) (UniProt Q14683); test: single-molecule fluorescence imaging of DNA loop extrusion
[2] = target: HeLa cohesin (unlabelled cohesin-STAG1) (human (endogenous in HeLa)) (UniProt Q14683); test: as above; remark: listed apart in the source

UniProt Q14683, sequence (Q14683 whole entry, chain 1 of 4): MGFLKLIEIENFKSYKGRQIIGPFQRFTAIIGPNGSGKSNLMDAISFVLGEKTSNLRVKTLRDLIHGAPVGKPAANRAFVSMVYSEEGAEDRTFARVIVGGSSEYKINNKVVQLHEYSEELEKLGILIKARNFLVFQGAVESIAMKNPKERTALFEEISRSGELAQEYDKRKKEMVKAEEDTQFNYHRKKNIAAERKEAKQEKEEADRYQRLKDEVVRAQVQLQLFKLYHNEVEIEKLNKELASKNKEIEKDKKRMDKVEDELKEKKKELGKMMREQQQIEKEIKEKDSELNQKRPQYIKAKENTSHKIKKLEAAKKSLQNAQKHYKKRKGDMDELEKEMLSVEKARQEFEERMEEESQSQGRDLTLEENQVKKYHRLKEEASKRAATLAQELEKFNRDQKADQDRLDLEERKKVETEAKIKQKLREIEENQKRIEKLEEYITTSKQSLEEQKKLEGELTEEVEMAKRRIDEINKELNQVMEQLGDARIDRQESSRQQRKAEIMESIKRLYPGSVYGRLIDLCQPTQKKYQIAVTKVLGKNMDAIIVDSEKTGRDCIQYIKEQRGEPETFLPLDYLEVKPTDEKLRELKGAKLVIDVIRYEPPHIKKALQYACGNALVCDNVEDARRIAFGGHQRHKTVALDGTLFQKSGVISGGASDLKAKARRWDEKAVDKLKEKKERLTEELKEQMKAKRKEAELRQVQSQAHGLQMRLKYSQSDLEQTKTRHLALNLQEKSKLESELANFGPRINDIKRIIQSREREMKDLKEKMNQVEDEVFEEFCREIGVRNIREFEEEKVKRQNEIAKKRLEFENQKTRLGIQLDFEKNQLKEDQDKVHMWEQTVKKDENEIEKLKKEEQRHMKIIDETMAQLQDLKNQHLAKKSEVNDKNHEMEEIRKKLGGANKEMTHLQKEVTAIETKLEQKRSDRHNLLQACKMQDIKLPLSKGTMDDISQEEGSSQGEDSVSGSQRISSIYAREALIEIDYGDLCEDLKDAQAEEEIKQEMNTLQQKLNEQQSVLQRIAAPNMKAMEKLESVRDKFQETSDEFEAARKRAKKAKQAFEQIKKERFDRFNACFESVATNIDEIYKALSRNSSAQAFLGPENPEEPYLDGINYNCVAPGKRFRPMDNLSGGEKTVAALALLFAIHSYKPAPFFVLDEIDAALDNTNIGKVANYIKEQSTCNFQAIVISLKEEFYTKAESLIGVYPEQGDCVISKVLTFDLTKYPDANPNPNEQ
UniProt Q14683, sequence (Q9UQE7 whole entry, chain 2 of 4, further chain): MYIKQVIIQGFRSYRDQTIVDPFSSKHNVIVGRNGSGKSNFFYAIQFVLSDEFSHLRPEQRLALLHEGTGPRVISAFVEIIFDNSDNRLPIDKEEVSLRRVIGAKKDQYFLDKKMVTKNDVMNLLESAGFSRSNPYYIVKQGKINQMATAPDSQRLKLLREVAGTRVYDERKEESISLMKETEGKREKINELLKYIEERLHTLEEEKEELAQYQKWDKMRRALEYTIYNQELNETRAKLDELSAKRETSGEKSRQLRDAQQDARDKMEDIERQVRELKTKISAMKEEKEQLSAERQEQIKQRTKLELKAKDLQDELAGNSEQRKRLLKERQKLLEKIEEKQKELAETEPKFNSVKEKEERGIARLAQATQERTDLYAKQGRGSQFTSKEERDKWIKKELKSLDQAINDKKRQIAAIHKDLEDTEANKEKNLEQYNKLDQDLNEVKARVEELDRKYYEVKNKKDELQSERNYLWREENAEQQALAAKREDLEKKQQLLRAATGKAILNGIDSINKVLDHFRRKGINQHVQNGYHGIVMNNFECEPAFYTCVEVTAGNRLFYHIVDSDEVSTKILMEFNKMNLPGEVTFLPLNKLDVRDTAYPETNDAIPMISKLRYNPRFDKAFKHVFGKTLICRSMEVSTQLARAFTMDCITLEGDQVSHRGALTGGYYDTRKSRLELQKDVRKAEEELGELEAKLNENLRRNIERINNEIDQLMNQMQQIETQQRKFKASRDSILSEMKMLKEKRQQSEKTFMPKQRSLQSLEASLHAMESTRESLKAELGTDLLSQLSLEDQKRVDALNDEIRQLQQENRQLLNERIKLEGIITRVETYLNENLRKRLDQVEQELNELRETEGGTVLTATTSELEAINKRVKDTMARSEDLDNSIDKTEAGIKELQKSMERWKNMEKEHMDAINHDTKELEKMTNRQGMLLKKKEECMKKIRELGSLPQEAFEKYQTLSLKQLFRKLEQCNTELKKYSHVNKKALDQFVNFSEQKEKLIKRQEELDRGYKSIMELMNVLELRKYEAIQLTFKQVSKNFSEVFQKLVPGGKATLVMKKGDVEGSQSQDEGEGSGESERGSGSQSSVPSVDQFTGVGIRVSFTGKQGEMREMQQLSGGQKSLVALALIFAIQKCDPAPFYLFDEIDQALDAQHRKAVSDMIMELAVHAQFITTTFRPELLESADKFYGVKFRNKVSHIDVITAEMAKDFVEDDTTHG
UniProt Q14683, sequence (O60216 whole entry, chain 3 of 4, further chain): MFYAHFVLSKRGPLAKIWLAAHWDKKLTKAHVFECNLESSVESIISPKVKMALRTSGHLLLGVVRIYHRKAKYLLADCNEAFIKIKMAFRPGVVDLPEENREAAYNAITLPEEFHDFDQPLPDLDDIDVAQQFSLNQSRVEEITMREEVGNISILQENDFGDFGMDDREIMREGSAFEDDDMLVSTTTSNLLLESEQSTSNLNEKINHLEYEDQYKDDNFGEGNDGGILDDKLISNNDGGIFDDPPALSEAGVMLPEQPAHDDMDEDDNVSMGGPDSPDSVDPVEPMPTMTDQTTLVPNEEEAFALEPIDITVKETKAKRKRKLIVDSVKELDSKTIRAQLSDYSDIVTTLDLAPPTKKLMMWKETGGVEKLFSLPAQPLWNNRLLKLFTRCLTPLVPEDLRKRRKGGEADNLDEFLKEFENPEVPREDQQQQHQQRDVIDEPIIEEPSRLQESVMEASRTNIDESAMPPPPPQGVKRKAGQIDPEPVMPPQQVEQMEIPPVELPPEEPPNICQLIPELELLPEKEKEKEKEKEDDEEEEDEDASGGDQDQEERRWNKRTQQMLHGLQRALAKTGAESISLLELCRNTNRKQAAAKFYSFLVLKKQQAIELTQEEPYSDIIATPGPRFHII
UniProt Q14683, sequence (Q8WVM7 whole entry, chain 4 of 4, further chain): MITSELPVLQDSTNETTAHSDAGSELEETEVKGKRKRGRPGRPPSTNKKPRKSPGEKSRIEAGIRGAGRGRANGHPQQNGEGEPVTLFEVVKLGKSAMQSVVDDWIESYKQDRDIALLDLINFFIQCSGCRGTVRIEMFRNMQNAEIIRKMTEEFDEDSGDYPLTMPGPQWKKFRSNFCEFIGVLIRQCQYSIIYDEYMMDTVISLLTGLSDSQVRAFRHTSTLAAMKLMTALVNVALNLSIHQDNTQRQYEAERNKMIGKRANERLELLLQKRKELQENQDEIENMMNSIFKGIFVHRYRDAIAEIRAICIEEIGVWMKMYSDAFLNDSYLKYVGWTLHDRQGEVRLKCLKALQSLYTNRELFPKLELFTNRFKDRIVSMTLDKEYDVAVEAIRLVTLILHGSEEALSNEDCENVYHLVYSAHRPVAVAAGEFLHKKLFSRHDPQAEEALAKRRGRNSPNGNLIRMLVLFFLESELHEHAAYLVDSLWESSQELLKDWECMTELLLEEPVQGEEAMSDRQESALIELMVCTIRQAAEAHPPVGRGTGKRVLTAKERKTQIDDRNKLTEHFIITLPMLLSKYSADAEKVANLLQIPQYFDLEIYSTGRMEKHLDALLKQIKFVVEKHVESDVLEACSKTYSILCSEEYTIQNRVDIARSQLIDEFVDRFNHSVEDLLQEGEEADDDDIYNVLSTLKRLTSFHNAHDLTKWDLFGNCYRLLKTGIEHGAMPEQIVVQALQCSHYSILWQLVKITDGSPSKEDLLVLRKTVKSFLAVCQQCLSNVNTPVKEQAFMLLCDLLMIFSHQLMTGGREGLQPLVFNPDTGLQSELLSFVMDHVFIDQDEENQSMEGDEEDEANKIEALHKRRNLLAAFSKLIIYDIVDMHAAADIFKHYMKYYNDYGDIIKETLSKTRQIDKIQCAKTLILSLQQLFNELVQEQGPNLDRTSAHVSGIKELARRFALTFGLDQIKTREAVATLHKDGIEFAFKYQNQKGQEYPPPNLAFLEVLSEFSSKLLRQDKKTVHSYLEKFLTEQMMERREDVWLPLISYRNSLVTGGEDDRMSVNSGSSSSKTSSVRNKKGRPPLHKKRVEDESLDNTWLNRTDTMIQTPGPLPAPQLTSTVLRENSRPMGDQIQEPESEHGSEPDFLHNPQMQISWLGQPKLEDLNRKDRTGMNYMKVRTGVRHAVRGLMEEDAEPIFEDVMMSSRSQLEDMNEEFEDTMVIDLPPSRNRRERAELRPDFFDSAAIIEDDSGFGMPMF

median residence time of NIPBL on loops, no PDS5B added [1]: 50 s
residence time of NIPBL on loops on which NIPBL was exchanged with PDS5B [1]: 38 s
Molecule: NIPBL-ΔN labelled with ATTO550 (BB241) (domain or fragment)

median time for which NIPBL and PDS5B were both on the loop during exchange [2]: 3 s
B1: PDS5B labelled with JF646 (natural protein)
chain: MAHSKTRTNDGKITYPPGVKEISDKISKEEMVRRLKMVVKTFMDMDQDSEEEKELYLNLALHLASDFFLKHPDKDVRLLVACCLADIFRIYAPEAPYTSPDKLKDIFMFITRQLKGLEDTKSPQFNRYFYLLENIAWVKSYNICFELEDSNEIFTQLYRTLFSVINNGHNQKVHMHMVDLMSSIICEGDTVSQELLDTVLVNLVPAHKNLNKQAYDLAKALLKRTAQAIEPYITNFFNQVLMLGKTSISDLSEHVFDLILELYNIDSHLLLSVLPQLEFKLKSNDNEERLQVVKLLAKMFGAKDSELASQNKPLWQCYLGRFNDIHVPIRLECVKFASHCLMNHPDLAKDLTEYLKVRSHDPEEAIRHDVIVSIVTAAKKDILLVNDHLLNFVRERTLDKRWRVRKEAMMGLAQIYKKYALQSAAGKDAAKQIAWIKDKLLHIYYQNSIDDRLLVERIFAQYMVPHNLETTERMKCLYYLYATLDLNAVKALNEMWKCQNLLRHQVKDLLDLIKQPKTDASVKAIFSKVMVITRNLPDPGKAQDFMKKFTQVLEDDEKIRKQLEVLVSPTCSCKQAEGCVREITKKLGNPKQPTNPFLEMIKFLLERIAPVHIDTESISALIKQVNKSIDGTADDEDEGVPTDQAIRAGLELLKVLSFTHPISFHSAETFESLLACLKMDDEKVAEAALQIFKNTGSKIEEDFPHIRSALLPVLHHKSKKGPPRQAKYAIHCIHAIFSSKETQFAQIFEPLHKSLDPSNLEHLITPLVTIGHIALLAPDQFAAPLKSLVATFIVKDLLMNDRLPGKKTTKLWVPDEEVSPETMVKIQAIKMMVRWLLGMKNNHSKSGTSTLRLLTTILHSDGDLTEQGKISKPDMSRLRLAAGSAIVKLAQEPCYHEIITLEQYQLCALAINDECYQVRQVFAQKLHKGLSRLRLPLEYMAICALCAKDPVKERRAHARQCLVKNINVRREYLKQHAAVSEKLLSLLPEYVVPYTIHLLAHDPDYVKVQDIEQLKDVKECLWFVLEILMAKNENNSHAFIRKMVENIKQTKDAQGPDDAKMNEKLYTVCDVAMNIIMSKSTTYSLESPKDPVLPARFFTQPDKNFSNTKNYLPPEMKSFFTPGKPKTTNVLGAVNKPLSSAGKQSQTKSSRMETVSNASSSSNPSSPGRIKGRLDSSEMDHSENEDYTMSSPLPGKKSDKRDDSDLVRSELEKPRGRKKTPVTEQEEKLGMDDLTKLVQEQKPKGSQRSRKRGHTASESDEQQWPEEKRLKEDILENEDEQNSPPKKGKRGRPPKPLGGGTPKEEPTMKTSKKGSKKKSGPPAPEEEEEEERQSGNTEQKSKSKQHRVSRRAQQRAESPESSAIESTQSTPQKGRGRPSKTPSPSQPKKNVRVGRSKQAATKENDSSEEVDVFQGSSPVDDIPQEETEEEEVSTVNVRRRSAKRERR
modifications: JF646-HaloTag ligand on the HaloTag
